Assay results taken from patent publication US20130260455A1 (ONCOMED PHARMACEUTICALS, published 2013).
Residue numbers refer to the chain shown, from its start.

Legend:
[1] = biological target: T1, recombinant human Notch2 (EGF10-15) (human, UniProt Q04721 375-605); test: Biacore 2000 SPR; Notch protein amine-coupled to CM5 chip, antibody 1-100 nM injected
T1 construct: The whole entry for hNotch2 is named here; also called hNotch2 **N2(EGF 10-155)
T1 sequence: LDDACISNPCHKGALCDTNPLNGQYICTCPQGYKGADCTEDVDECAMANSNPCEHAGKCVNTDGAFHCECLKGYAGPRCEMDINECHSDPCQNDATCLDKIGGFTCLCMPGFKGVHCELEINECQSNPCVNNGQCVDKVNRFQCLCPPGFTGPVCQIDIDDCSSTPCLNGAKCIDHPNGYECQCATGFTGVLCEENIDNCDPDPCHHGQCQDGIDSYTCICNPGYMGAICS
Experimental: (§1) The affinities for human and mouse Notch1, Notch2, Notch3, and Notch4 were determined using a Biacore 2000 instrument. Briefly, recombinant human and mouse Notch proteins (EGF10-15 for Notch1, 2, & 4; EGF9-14 for Notch3) were immobilized on a CM5 chip using standard amine based chemistry (NHS/EDC). For hNotch2. EGF1-12 was also tested for binding. Different antibody concentrations (1-100 nM) were injected over the protein surfaces and kinetic data were collected over time. The data was fit using the simultaneous global fit equation to yield dissociation constants (KD, nM) for each Notch (Table 3).

[2] = biological target: T2, recombinant human Notch3 (EGF9-14) (human, UniProt Q9UM47 351-580); test: as above
T2 construct: The whole entry for hNotch3 is named here; also called hNotch3; h-Notch3
T2 sequence: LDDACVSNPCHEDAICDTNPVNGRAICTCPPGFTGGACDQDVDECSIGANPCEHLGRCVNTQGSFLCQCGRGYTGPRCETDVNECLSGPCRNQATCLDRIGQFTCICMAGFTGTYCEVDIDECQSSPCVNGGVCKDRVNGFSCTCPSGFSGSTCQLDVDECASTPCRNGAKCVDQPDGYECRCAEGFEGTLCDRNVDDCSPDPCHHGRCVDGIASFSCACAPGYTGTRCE
Experimental: as §1

[3] = biological target: T3, recombinant mouse Notch2 (EGF10-15) (mouse, UniProt O35516 375-605); test: as above
T3 construct: domain: EGF10-15; also called mNotch2; m-Notch2
T3 sequence (looked up): T1 sequence with I121V, V191I, E194D
Experimental: as §1

[4] = biological target: T4, recombinant mouse Notch3 (EGF9-14) (mouse, UniProt Q61982 352-581); test: as above
T4 construct: domain: EGF9-14; also called mNotch3; m-Notch3
T4 sequence (looked up): T2 sequence with N22S, T153M, D193E, T227I
Experimental: as §1

[5] = biological target: T5, recombinant human Notch2 (EGF1-12) (human, UniProt Q04721 26-493); test: as above
T5 construct: also called hNotch2 *N2(EGF1-12)
T5 sequence: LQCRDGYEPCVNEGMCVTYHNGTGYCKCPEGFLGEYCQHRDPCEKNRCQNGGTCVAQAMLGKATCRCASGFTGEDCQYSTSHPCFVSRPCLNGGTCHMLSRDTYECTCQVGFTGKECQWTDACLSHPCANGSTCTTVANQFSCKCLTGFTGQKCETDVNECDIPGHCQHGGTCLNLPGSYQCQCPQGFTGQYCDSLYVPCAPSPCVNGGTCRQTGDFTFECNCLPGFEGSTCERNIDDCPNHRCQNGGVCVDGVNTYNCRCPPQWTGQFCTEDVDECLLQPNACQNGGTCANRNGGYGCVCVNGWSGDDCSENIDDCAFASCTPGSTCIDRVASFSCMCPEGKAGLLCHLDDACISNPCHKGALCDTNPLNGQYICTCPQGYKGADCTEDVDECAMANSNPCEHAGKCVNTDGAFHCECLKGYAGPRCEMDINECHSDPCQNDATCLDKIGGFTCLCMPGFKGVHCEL
Experimental: as §1

[6] = biological target: T6, human Notch4, full length, on transfected cells (human, UniProt Q99466 24-2003); test: FACS on HEK-293 cells transiently transfected with hNotch4 and GFP
T6 construct: also called hNotch4
Experimental: The ability of the 59R1 IgG2 antibody to cross-react with other Notch receptors was determined by FACS assay using HEK-293 cells transiently transfected with the human Notch1, Notch2. Notch3 or Notch4 expression plasmid and green fluorescent protein (GFP) as a transfection control. GFP positive cells indicated expression of the transgene. The 59R1 IgG2 was added to the cells at 2 μg/ml and detected by PE-conjugated goat anti-human Fc gamma specific (Jackson Immunochemicals). All Notch constructs were full length.

T6 sequence (Q99466 24-2003 limits assumed): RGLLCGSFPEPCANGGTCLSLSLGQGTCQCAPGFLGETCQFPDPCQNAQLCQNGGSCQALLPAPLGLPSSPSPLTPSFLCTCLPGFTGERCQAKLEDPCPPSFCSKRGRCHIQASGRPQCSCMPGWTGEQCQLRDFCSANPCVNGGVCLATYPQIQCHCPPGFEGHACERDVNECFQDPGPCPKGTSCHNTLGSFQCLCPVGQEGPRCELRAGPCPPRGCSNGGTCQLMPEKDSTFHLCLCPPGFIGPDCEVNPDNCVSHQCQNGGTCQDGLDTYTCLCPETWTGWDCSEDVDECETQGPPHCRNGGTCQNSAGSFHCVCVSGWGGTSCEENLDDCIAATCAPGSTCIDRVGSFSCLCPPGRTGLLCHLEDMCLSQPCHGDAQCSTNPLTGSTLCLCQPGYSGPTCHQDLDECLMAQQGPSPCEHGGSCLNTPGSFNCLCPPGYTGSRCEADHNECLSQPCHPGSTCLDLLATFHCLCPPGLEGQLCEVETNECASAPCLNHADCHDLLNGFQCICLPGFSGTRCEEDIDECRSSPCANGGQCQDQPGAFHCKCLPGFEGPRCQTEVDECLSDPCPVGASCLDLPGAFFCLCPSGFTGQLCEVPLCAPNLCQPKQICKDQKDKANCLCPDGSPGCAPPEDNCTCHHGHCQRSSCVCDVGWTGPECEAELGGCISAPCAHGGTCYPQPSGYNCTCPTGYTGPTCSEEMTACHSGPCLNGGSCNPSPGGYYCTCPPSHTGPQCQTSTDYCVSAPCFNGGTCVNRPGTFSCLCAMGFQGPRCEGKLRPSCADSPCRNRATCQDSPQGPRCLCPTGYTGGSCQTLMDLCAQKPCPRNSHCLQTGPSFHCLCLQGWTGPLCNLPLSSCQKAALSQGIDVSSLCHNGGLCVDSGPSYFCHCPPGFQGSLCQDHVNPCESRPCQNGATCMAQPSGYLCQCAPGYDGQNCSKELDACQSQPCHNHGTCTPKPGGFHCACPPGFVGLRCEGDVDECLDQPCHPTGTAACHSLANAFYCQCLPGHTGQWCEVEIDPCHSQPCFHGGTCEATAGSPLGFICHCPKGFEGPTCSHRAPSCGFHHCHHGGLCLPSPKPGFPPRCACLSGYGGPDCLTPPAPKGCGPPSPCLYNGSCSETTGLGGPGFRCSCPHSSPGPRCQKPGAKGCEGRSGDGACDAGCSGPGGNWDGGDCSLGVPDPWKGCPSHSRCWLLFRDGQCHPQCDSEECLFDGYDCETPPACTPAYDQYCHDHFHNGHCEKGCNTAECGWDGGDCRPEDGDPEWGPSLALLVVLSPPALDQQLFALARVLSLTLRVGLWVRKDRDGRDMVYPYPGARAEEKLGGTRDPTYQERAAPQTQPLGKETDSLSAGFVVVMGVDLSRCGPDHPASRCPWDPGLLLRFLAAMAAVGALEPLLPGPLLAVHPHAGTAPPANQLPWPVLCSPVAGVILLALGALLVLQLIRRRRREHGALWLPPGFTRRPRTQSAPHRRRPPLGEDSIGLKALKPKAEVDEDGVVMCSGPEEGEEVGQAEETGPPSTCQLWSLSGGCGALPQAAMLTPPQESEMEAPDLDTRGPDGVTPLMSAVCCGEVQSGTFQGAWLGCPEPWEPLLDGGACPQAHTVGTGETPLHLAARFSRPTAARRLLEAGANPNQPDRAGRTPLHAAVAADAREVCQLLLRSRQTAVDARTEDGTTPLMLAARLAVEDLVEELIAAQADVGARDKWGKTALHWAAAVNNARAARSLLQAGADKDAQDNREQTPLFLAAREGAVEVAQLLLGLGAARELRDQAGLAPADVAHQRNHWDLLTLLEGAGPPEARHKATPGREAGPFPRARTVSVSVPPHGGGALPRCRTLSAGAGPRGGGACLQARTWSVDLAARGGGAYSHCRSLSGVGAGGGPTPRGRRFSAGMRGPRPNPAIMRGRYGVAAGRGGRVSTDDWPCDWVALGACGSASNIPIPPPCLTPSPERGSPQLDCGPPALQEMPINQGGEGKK

B1: 59R1 IgG2 antibody (antibody, V domains shown)
VH: QVQLVESGGGLVQPGGSLRLSCAASGFTFSSSGMSWVRQAPGKGLEWVSVIASSGSNTYYADSVKGRFTISRDNSKNTLYLQMNSLRAEDTAVYYCARGIFFAIWGQGTLVTVSS
VL: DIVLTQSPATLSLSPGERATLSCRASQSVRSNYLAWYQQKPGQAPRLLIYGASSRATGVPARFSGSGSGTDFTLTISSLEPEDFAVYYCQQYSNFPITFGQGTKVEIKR
notes: Human IgG2/kappa made in CHO cells; also called anti-Notch2/3 antibody 59R1
[1]
  Kd: < 100 pM
[2]
  Kd: 120 pM
[3]
  Kd: 350 pM
[4]
  Kd: 130 pM
[5]
  Kd: < 100 pM
[6]
  binding result: no binding (tested: 2 ug/ml)
